B1: TRIM9 (parent)
chain: PRNSCITCPQCHRSLILDDRGLRG

Variants of: B1
Experiment: protein stability index of a GFP-peptide fusion (GPS, HEK-293T) (PSI 1-6); higher = more stable
Conditions: c terminus: a fixed tail appended
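Also: lentivirally expressed fusions sorted by FACS into six bins by GFP to DsRed ratio, PSI derived from sequencing read proportions per bin multiplied by bin number.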

Variant	protein stability index
PRNSRITCPQCHRSLILDDRGLRG [C5R]	3.09
PVNSCITCPQCHRSLILDDRGLRG [R2V]	1.92
PRNSCITCPQCHESLILDDRGLRG [R13E]	2.61
PRISCITCPQCHRSLILDDRGLRG [N3I]	1.92
ERNSCITCPQCHRSLILDDRGLRG [P1E]	3.1
PRNSCITCPQCHRSLILDDRPLRG [G21P]	2.27
PRNSCITCPQCHRSLILDDRDLRG [G21D]	2.07
PRNSCITCPQCHRSIILDDRGLRG [L15I]	1.68
PRNSCITCPQCHRSTILDDRGLRG [L15T]	2.59
PRNSCITCPQCHRSLILTDRGLRG [D18T]	2.24
PRNSCITCPQCHRSLILCDRGLRG [D18C]	2.05
PRNSCITCPQCHRSLILIDRGLRG [D18I]	1.53
PRNSCITCPQCHRSLILDDRVLRG [G21V]	1.78
PRNSFITCPQCHRSLILDDRGLRG [C5F]	2.08
PRNSCITCPQCHRSLRLDDRGLRG [I16R]	2.13
PRNDCITCPQCHRSLILDDRGLRG [S4D]	2.29
PRNSCITCPQCHNSLILDDRGLRG [R13N]	2.49
PRNSCITCPQCHRSLILDDFGLRG [R20F]	1.69
PRNSCITCPQCHVSLILDDRGLRG [R13V]	2.2
PQNSCITCPQCHRSLILDDRGLRG [R2Q]	2.52
PRNSCITCPQIHRSLILDDRGLRG [C11I]	2.98
PRNSCITCPQCHRSLIHDDRGLRG [L17H]	2.74
PRNSCITCPQCHRSLDLDDRGLRG [I16D]	2.64
PRNSKITCPQCHRSLILDDRGLRG [C5K]	1.71

Variant	protein stability index
PRNSCITCPQCTRSLILDDRGLRG [H12T]	1.38
PRNSCITCPQCHRSLILDDRGPRG [L22P]	3.51
PRNSCITCPQSHRSLILDDRGLRG [C11S]	2.43
PRNSCITCPQCHRRLILDDRGLRG [S14R]	2.4
PRNSCITCPQCHRSLILDDAGLRG [R20A]	1.98
PRNICITCPQCHRSLILDDRGLRG [S4I]	2.52
PRNSCITCPQCHRSLILDDRTLRG [G21T]	1.57
PRNSCITCPQCHRSLILDDRYLRG [G21Y]	2.24
PRHSCITCPQCHRSLILDDRGLRG [N3H]	2.53
PRNSCITCPQCHRSLILDDRGTRG [L22T]	3.33
PRNSCITCPQCHRSLILDDRGYRG [L22Y]	2.54
PRNSCITCPQCHRSLILDERGLRG [D19E]	1.82
PRNSCITCPQCHRSLILDDRGLRK [G24K]	1.71
PRNSCITCPLCHRSLILDDRGLRG [Q10L]	1.89
PRNSCITCWQCHRSLILDDRGLRG [P9W]	3.5
PRNSCITCPQCHRSLILDDRGCRG [L22C]	2.32
PRNSCITCTQCHRSLILDDRGLRG [P9T]	1.83
PRNSCITCPQCHRSRILDDRGLRG [L15R]	2.13
PRNSCITCPQCHRSLILDDRGERG [L22E]	2.21
PRNSCITCPQCHRSLILDDVGLRG [R20V]	1.82
PRNSCITCPQCHRSLILDDRNLRG [G21N]	2.17
PRNSCITCPQCHRSLILDDKGLRG [R20K]	1.98
PRNSCPTCPQCHRSLILDDRGLRG [I6P]	2.6
PRNSCITCPSCHRSLILDDRGLRG [Q10S]	2.46

Variant	protein stability index
PRNSLITCPQCHRSLILDDRGLRG [C5L]	2.29
PRNSCCTCPQCHRSLILDDRGLRG [I6C]	2.26
PRNSCITCPQCHRSAILDDRGLRG [L15A]	1.92
PRNSCNTCPQCHRSLILDDRGLRG [I6N]	2.29
PRNSCITCYQCHRSLILDDRGLRG [P9Y]	3.11
PRNSCITCPVCHRSLILDDRGLRG [Q10V]	2.29
PRNSCITCPQCIRSLILDDRGLRG [H12I]	1.85
PRNSCITCPQCHRSLMLDDRGLRG [I16M]	2.58
PRNSCITCPPCHRSLILDDRGLRG [Q10P]	2.02
PRNSCITCPQCMRSLILDDRGLRG [H12M]	2.78
PRNSCITCPQCHRSLILDDHGLRG [R20H]	1.62
PRNSCITCPQCHRSLILDDRGLRD [G24D]	2.08
PRNSCITCPQCHRSHILDDRGLRG [L15H]	2.45
PRNSCETCPQCHRSLILDDRGLRG [I6E]	2.02
PRNSCITCPQCHRSLIDDDRGLRG [L17D]	2.48
PRNSCITCPQCHRSLILDDRGVRG [L22V]	2.55
PRLSCITCPQCHRSLILDDRGLRG [N3L]	2.52
PRNSCITCPQCHRELILDDRGLRG [S14E]	2.6
PRNSCITAPQCHRSLILDDRGLRG [C8A]	2.84
PRNSCITCPQPHRSLILDDRGLRG [C11P]	2.47
PRNSCITCPQCHRSLILDDRGGRG [L22G]	2.3
PRNSCITCPQCHRSCILDDRGLRG [L15C]	1.95
PRNSCITCPQCHRSLILDDLGLRG [R20L]	1.93
PRNSHITCPQCHRSLILDDRGLRG [C5H]	1.77

Variant	protein stability index
PRNSCITCPQCHRSLIPDDRGLRG [L17P]	2.4
PRNSCITCPQCHRSLILWDRGLRG [D18W]	1.68
WRNSCITCPQCHRSLILDDRGLRG [P1W]	1.94
PRNSCITCPQCHRSLIGDDRGLRG [L17G]	2.08
PRNSCIMCPQCHRSLILDDRGLRG [T7M]	2.36
PRNSYITCPQCHRSLILDDRGLRG [C5Y]	1.87
PRNSCYTCPQCHRSLILDDRGLRG [I6Y]	2.72
PRNSCILCPQCHRSLILDDRGLRG [T7L]	1.99
PRNSCITCPQCHRSLILDDRQLRG [G21Q]	2.01
PINSCITCPQCHRSLILDDRGLRG [R2I]	2.64
PRNSCITCPQCHRSLILDDRGLDG [R23D]	2.96
PRNSCITCPQCHRSEILDDRGLRG [L15E]	2.19
PRNSCITIPQCHRSLILDDRGLRG [C8I]	2.38
PRNSCITCPQCHLSLILDDRGLRG [R13L]	1.57
PRNSCITCPQCHRSLILDDRGLHG [R23H]	2.05
PRNSCITCPQCHRSMILDDRGLRG [L15M]	2.61
PRNSCITCPQQHRSLILDDRGLRG [C11Q]	2.16
PDNSCITCPQCHRSLILDDRGLRG [R2D]	2.34
TRNSCITCPQCHRSLILDDRGLRG [P1T]	1.97
PRNSDITCPQCHRSLILDDRGLRG [C5D]	2.11
PRNSCITDPQCHRSLILDDRGLRG [C8D]	2.24
PRNSCITCPQCHSSLILDDRGLRG [R13S]	2.9

Reference: the supplement of paper PMC10567573
